Data: publication PMC4258549

B1: complement component C2, recombinant, full-length (natural protein)
chain: APSCPQNVNISGGTFTLSHGWAPGSLLTYSCPQGLYPSPASRLCKSSGQWQTPGATRSLSKAVCKPVRCPAPVSFENGIYTPRLGSYPVGGNVSFECEDGFILRGSPVRQCRPNGMWDGETAVCDNGAGHCPNPGISLGAVRTGFRFGHGDKVRYRCSSNLVLTGSSERECQGNGVWSGTEPICRQPYSYDFPEDVAPALGTSFSHMLGATNPTQKTKESLGRKIQIQRSGHLNLYLLLDCSQSVSENDFLIFKESASLMVDRIFSFEINVSVAIITFASEPKVLMSVLNDNSRDMTEVISSLENANYKDHENGTGTNTYAALNSVYLMMNNQMRLLGMETMAWQEIRHAIILLTDGKSNMGGSPKTAVDHIREILNINQKRNDYLDIYAIGVGKLDVDWRELNELGSKKDGERHAFILQDTKALHQVFEHMLDVSKLTDTICGVGNMSANASDQERTPWHVTIKPKSQETCRGALISDQWVLTAAHCFRDGNDHSLWRVNVGDPKSQWGKEFLIEKAVISPGFDVFAKKNQGILEFYGDDIALLKLAQKVKMSTHARPICLPCTMEANLALRRPQGSTCRDHENELLNKQSVPAHFVALNGSKLNINLKMGVEWTSCAEVVSQEKTMFPNLTDVREVVTDQFLCSGTQEDESPCKGESGGAVFLERRFRFFQVGLVSWGLYNPCLGSADKNSRKRAPRSKVPPPRDFHINLFRMQPWLRQHLGDVLNFLPL
B2: extracellular adherence protein (Eap), recombinant, full-length, untagged (natural protein)
chain: AAKPLDKSSSTLHHGHSNIQIPYTITVNGTSQNILSSLTFNKNQNISYKDIENKVKSVLYFNRGISDIDLRLSKQAEYTVHFKNGTKRVIDLKSGIYTADLINTSDIKAISVNVDTKKQPKDKAKANVQVPYTITVNGTSQNILSNLTFNKNQNISYKDLEGKVKSVLESNRGITDVDLRLSKQAKYTVNFKNGTKKVIDLKSGIYTANLINSSDIKSININVDTKKHIENKAKRNYQVPYSINLNGTSTNILSNLSFSNKPWTNYKNLTSQIKSVLKHDRGISEQDLKYAKKAYYTVYFKNGGKRILQLNSKNYTANLVHAKDVKRIEITVKTGTKAKADRYVPYTIAVNGTSTPILSKLKISNKQLISYKYLNDKVKSVLKSERGISDLDLKFAKQAKYTVYFKNGKKQVVNLKSDIFTPNLFSAKDIKKIDIDVKQYTKSKKK

What was measured:
[1] = molecular target: biotinylated C4b (human); assay: AlphaScreen or HTRF
[2] = molecular target: biotinylated C4b (human); assay: AlphaScreen or HTRF; remark: listed apart in the source
[3] = molecular target: complement component C4b (human); assay: AUC
[4] = molecular target: biotinylated C4b (human); assay: SPR

Row | Binder | IC50 [1] | IC50 [2] | stoichiometry N [3] | Kd [2] | IC50 [4]
1 | B1 | 180 nM | 460 nM | – | – | –
2 | B2 | – | – | 1 | 185 nM | 50 nM
